From patent US20030108992A1

Experiments:
Conditions in all cases: remark: other sources report otherwise
[1] = target: T1, Fas with the death domain, CFP and YFP fusions (human), P25445; test: CFP dequenching after YFP photobleaching, fluorescence microscope
T1 chain: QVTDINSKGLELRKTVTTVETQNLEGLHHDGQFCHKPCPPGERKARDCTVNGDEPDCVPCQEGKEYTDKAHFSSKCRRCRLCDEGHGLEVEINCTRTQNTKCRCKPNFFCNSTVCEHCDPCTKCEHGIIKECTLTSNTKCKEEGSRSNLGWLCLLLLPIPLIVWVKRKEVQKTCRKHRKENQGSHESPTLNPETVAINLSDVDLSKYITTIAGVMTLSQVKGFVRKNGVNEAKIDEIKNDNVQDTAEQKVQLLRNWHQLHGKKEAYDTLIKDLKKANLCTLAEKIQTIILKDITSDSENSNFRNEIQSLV

[2] = target: T2, Fas (endogenous, native receptor on T lymphoma cells), P25445; test: DTSSP crosslinking of H9 lymphoma cells, anti-Fas Western blot of deglycosylated lysates
T2 chain: T1 chain

[3] = target: T3, p60 TNFR (endogenous), P19438; test: DTSSP crosslinking of H9 cells with or without TNFα, non-reducing Western blot
T3 chain: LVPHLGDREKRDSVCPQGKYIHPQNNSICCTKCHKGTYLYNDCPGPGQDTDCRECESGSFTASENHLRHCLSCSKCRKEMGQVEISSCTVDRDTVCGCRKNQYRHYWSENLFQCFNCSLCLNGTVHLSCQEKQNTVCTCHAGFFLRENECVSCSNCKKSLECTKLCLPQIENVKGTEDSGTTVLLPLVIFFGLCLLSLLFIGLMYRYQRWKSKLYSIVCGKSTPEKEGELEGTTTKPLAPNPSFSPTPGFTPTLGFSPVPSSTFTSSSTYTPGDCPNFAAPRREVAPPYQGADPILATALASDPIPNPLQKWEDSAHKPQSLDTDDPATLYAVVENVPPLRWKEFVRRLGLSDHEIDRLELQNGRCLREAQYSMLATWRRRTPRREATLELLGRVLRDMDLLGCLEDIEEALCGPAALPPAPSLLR

B1: Fas with the death domain, CFP and YFP fusions, P25445 26-335 (receptor, human, UniProt P25445 26-335, looked up, not shown: large carriers)
chain: T1 chain
- FRET efficiency [1]: 27%

B2: Fas (endogenous, native receptor on T lymphoma cells), P25445 26-335 (receptor, UniProt P25445 26-335, looked up)
chain: T1 chain
- percent of chains cross-linked as trimers (densitometry) [2]: 60%

B3: p60 TNFR (endogenous), P19438 30-455 (receptor, UniProt P19438 30-455, looked up)
chain: T3 chain
- percent of chains cross-linked as apparent trimers and higher order complexes [3]: 15 to 20%
